The record followed here is patent US20110151450.

Assay in all cases: cleavage_in_vitro
The subject of series [1] is T1, ApoI-HF T77A/T96A (Arthrobacter protophormiae).
T1 sequence: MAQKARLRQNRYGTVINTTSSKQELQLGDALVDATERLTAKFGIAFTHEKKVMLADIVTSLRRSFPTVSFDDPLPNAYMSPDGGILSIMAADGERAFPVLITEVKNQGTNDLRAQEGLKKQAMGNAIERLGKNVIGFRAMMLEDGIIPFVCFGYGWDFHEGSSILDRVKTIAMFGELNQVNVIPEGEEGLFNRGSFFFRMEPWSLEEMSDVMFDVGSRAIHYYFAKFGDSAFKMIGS
Conditions: NEB4, relative activity 50%.

Series [2] has as its target T2, BglII-HF N208A (Bacillus globigii) (UniProt Q45488).
T2 sequence: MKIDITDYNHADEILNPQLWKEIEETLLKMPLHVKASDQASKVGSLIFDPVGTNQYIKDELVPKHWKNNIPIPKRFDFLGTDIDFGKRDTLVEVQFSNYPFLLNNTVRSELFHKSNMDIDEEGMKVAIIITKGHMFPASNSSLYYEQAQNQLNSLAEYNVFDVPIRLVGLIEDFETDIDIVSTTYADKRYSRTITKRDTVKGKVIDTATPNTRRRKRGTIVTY
The conditions noted are these: NEB4, relative activity 25%.

Series [3] deals with T3, BglII-WT (Bacillus globigii) (UniProt Q45488).
T3 sequence: T2 sequence with A208N
Conditions: NEB4, relative activity 6.3%.

In series [4] the test system is T4, PmeI-HF E86A (Pseudomonas mendocina).
T4 sequence: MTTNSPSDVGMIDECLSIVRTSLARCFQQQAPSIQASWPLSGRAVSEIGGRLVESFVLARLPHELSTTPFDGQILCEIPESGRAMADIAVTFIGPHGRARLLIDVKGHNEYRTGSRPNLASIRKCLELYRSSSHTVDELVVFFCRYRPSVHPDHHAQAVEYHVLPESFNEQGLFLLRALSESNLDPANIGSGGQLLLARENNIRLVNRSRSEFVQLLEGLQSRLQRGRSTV
Conditions: NEB4, relative activity 100%.

Series [5] deals with T5, PmeI-WT (Pseudomonas mendocina).
T5 sequence: T4 sequence with A86E
The conditions noted are these: NEB4, relative activity 25%.

Series [6] concerns T6, PvuI-WT (Proteus vulgaris).
T6 sequence: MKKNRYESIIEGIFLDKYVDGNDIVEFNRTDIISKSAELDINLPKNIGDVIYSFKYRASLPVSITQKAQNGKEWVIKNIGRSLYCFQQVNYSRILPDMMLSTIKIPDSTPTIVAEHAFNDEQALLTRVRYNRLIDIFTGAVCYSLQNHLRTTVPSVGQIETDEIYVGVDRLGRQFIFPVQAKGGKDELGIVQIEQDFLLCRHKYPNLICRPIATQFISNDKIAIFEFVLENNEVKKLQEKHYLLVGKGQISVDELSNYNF
Conditions: NEB4, relative activity 12.5%.

Series [7] deals with T7, SmaI-WT (Serratia marcescens) (UniProt P14229).
T7 sequence: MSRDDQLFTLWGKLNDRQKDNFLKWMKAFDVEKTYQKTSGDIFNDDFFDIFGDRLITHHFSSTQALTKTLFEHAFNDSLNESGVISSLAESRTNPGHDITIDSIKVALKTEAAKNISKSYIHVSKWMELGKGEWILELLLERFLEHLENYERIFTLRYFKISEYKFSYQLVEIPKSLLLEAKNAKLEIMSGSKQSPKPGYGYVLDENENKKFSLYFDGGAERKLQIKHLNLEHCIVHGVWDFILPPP
Conditions: NEB4, relative activity 100%.

The subject of series [8] is T8, SpeI-WT (Sphaerotilus natans).
T8 sequence: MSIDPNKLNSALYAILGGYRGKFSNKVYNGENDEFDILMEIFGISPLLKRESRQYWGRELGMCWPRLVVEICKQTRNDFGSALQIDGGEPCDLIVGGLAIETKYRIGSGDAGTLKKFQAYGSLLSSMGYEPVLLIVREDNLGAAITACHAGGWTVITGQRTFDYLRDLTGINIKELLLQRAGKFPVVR
Conditions: NEB4, relative activity 50%.

Numbering of substitutions follows the chain as printed. Where only a bound is given, the exact number is not on record here.

Consider pXba plasmid, for which the activity (fidelity index) in series [1] was > 2000; in series [2] it was > 32000; in series [3], 16; in series [4], > 8000; in series [5] it was 64; in series [6], 32. The activity (fidelity index) amounted to 64 in series [7] and 500 in series [8].
